Changes are numbered by the printed parent chain.
B1: 4.5 humanized variant 16 (HC1-3 / LC2-1) (antibody, V domains shown)
VH: QVQLQESGPGLVKPSQTLSLTCTVSGFSITTGGYYWNWIRQFPGKKLEWMGYIYTSGRTSYNPSLKSRVTISRDTSKNQFSLKLSSVTAADTAVYYCADMADKGGWFAYWGQGTLVTVSS
VL: DIVMTQTPLSLPVTPGEPASISCRSSQSLFSSNTKRNYLDWYLQKPGQSPQLLIYHASYRASGVPDRFSGSGSGTDFTLKISRVEAEDVGVYYCQQHYETPLTFGQGTRLEIK
notes: Variable domains only; detected with anti-hIg secondary; also called VH1C / VL2A
B2: 4.5 humanized variant 17 (HC1-3 / LC2-2) (antibody, V domains shown)
VH: B1 VH
VL: B1 VL with D40N, Q51K, Y59T, A61L, V91D, Y93F, Q106D
notes: Variable domains only; detected with anti-hIg secondary; also called VH1C / VL2B
B3: 4.5 humanized variant 18 (HC1-3 / LC2-3) (antibody, V domains shown)
VH: B1 VH
VL: B1 VL with L9S, R24L, D40N, Q51K, Y59T, A61L, V91D, Y93F, Q106D
notes: Variable domains only; detected with anti-hIg secondary; also called VH1C / VL2C
B4: 4.5 humanized variant 26 (HC2-2 / LC1-2) (antibody, V domains shown)
VH: QITLKESGPTLVKPTQTLTLTCTVSGFSITTGGYYWNWIRQPPGKKLEWLALIYTSGRTSYNPSLKSRLTITKDTSKNQVVLTMTNMDPVDTATYYCADMADKGGWFAYWGQGTLVTVSS
VL: DIVMTQSPDSLAVSLGERATINCKSSQSLFSSNTKRNYLNWYQQKPGQPPKLLIYHASTRLSGVPDRFSGSGSGTDFTLTISSLQAEDVADYFCQQHYETPLTFGDGTRLEIK
notes: Variable domains only; detected with anti-hIg secondary; also called VH2B / VL1B
B5: 4.5 humanized variant 19 (HC2-1 / LC1-1) (antibody, V domains shown)
VH: B4 VH with V24F, W36V, N37G, K46A, S60R, N62S
VL: B4 VL with N40A, L61E, D91V, F93Y, D106Q
notes: Variable domains only; detected with anti-hIg secondary; also called VH2A / VL1A
B6: 4.5 humanized variant 20 (HC2-1 / LC1-2) (antibody, V domains shown)
VH: B4 VH with V24F, W36V, N37G, K46A, S60R, N62S
VL: B4 VL
notes: Variable domains only; detected with anti-hIg secondary; also called VH2A / VL1B
B7: 4.5 humanized variant 21 (HC2-1 / LC1-3) (antibody, V domains shown)
VH: B4 VH with V24F, W36V, N37G, K46A, S60R, N62S
VL: B4 VL with K24L, P49S
notes: Variable domains only; detected with anti-hIg secondary; also called VH2A / VL1C
B8: 4.5 humanized variant 25 (HC2-2 / LC1-1) (antibody, V domains shown)
VH: B4 VH
VL: B4 VL with N40A, L61E, D91V, F93Y, D106Q
notes: Variable domains only; detected with anti-hIg secondary; also called VH2B / VL1A
B9: 4.5 humanized variant 27 (HC2-2 / LC1-3) (antibody, V domains shown)
VH: B4 VH
VL: B4 VL with K24L, P49S
notes: Variable domains only; detected with anti-hIg secondary; also called VH2B / VL1C
B10: 4.5 humanized variant 31 (HC2-3 / LC1-1) (antibody, V domains shown)
VH: B4 VH with T3Q, L50M
VL: B4 VL with N40A, L61E, D91V, F93Y, D106Q
notes: Variable domains only; detected with anti-hIg secondary; also called VH2C / VL1A
B11: 4.5 humanized variant 32 (HC2-3 / LC1-2) (antibody, V domains shown)
VH: B4 VH with T3Q, L50M
VL: B4 VL
notes: Variable domains only; detected with anti-hIg secondary; also called VH2C / VL1B
B12: 4.5 humanized variant 22 (HC2-1 / LC2-1) (antibody, V domains shown)
VH: B4 VH with V24F, W36V, N37G, K46A, S60R, N62S
VL: B1 VL
notes: Variable domains only; detected with anti-hIg secondary; also called VH2A / VL2A
B13: 4.5 humanized variant 29 (HC2-2 / LC2-2) (antibody, V domains shown)
VH: B4 VH
VL: B1 VL with D40N, Q51K, Y59T, A61L, V91D, Y93F, Q106D
notes: Variable domains only; detected with anti-hIg secondary; also called VH2B / VL2B
B14: 4.5 humanized variant 23 (HC2-1 / LC2-2) (antibody, V domains shown)
VH: B4 VH with V24F, W36V, N37G, K46A, S60R, N62S
VL: B1 VL with D40N, Q51K, Y59T, A61L, V91D, Y93F, Q106D
notes: Variable domains only; detected with anti-hIg secondary; also called VH2A / VL2B
B15: 4.5 humanized variant 24 (HC2-1 / LC2-3) (antibody, V domains shown)
VH: B4 VH with V24F, W36V, N37G, K46A, S60R, N62S
VL: B1 VL with L9S, R24L, D40N, Q51K, Y59T, A61L, V91D, Y93F, Q106D
notes: Variable domains only; detected with anti-hIg secondary; also called VH2A / VL2C
B16: 4.5 humanized variant 28 (HC2-2 / LC2-1) (antibody, V domains shown)
VH: B4 VH
VL: B1 VL
notes: Variable domains only; detected with anti-hIg secondary; also called VH2B / VL2A
B17: 4.5 humanized variant 30 (HC2-2 / LC2-3) (antibody, V domains shown)
VH: B4 VH
VL: B1 VL with L9S, R24L, D40N, Q51K, Y59T, A61L, V91D, Y93F, Q106D
notes: Variable domains only; detected with anti-hIg secondary; also called VH2B / VL2C

Key:
[1] = biological target: T1, human H7CR (B7-H7 counter-receptor) (human, UniProt Q96BF3 23-282); assay: binding to human H7CR as endogenously expressed on the surface of a cell
T1 construct: Used for H7CR on CHO.hH7CR transfectants, human T cells and tonsil tissue; also called B7-H7CR; CD28H
T1 sequence: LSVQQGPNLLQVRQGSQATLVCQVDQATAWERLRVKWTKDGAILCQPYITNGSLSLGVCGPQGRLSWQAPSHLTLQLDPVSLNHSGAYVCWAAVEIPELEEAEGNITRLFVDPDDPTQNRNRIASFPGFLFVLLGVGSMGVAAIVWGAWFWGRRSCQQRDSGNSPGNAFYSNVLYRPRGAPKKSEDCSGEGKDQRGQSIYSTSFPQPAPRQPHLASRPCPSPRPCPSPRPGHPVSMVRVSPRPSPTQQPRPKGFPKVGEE

[2] = biological target: T2, H7CR-GFP fusion protein on transfected CHO cells (Homo sapiens (Human), UniProt Q96BF3 23-282); assay: flow cytometry, 5 µg/ml variant on H7CR-GFP transfected CHO cells, anti-hIg PE secondary antibody [row HC1-3, column LC2-1]
T2 construct: not shown: GFP part
T2 sequence: T1 sequence
Procedure: (§1) 5 μg/ml antibodies from thirty-six variants were incubated with H7CR-GFP fusion protein transfected CHO cells for 30 min at room temperature. Cells were then washed twice with 2 ml flow cytometry buffer, and resuspended in 100 μl flow cytometry buffer. 1 μl anti-hIg PE secondary antibody (Biolegend) was added and incubated with the cells for 15 mins Samples were then washed and resuspended in 100 μl flow cytometry buffer. Flow Cytometry data was acquired using BD Canto (BD Biosciences) in plate format and analyzed by FlowJo software.

[3] = biological target: T2, H7CR-GFP fusion protein on transfected …; assay: flow cytometry, 5 µg/ml variant on H7CR-GFP transfected CHO cells, anti-hIg PE secondary antibody [row HC1-3, column LC2-2]
Procedure: as §1

[4] = biological target: T2, H7CR-GFP fusion protein on transfected …; assay: flow cytometry, 5 µg/ml variant on H7CR-GFP transfected CHO cells, anti-hIg PE secondary antibody [row HC1-3, column LC2-3]
Procedure: as §1

[5] = biological target: T2, H7CR-GFP fusion protein on transfected …; assay: flow cytometry, 5 µg/ml variant on H7CR-GFP transfected CHO cells, anti-hIg PE secondary antibody [row HC2-2, column LC1-2]
Procedure: as §1

[6] = biological target: T2, H7CR-GFP fusion protein on transfected …; assay: flow cytometry, 5 µg/ml variant on H7CR-GFP transfected CHO cells, anti-hIg PE secondary antibody [row HC2-1, column LC1-1]
Procedure: as §1

[7] = biological target: T2, H7CR-GFP fusion protein on transfected …; assay: flow cytometry, 5 µg/ml variant on H7CR-GFP transfected CHO cells, anti-hIg PE secondary antibody [row HC2-1, column LC1-2]
Procedure: as §1

[8] = biological target: T2, H7CR-GFP fusion protein on transfected …; assay: flow cytometry, 5 µg/ml variant on H7CR-GFP transfected CHO cells, anti-hIg PE secondary antibody [row HC2-1, column LC1-3]
Procedure: as §1

[9] = biological target: T2, H7CR-GFP fusion protein on transfected …; assay: flow cytometry, 5 µg/ml variant on H7CR-GFP transfected CHO cells, anti-hIg PE secondary antibody [row HC2-2, column LC1-1]
Procedure: as §1

[10] = biological target: T2, H7CR-GFP fusion protein on transfected …; assay: flow cytometry, 5 µg/ml variant on H7CR-GFP transfected CHO cells, anti-hIg PE secondary antibody [row HC2-2, column LC1-3]
Procedure: as §1

[11] = biological target: T2, H7CR-GFP fusion protein on transfected …; assay: flow cytometry, 5 µg/ml variant on H7CR-GFP transfected CHO cells, anti-hIg PE secondary antibody [row HC2-3, column LC1-1]
Procedure: as §1

[12] = biological target: T2, H7CR-GFP fusion protein on transfected …; assay: flow cytometry, 5 µg/ml variant on H7CR-GFP transfected CHO cells, anti-hIg PE secondary antibody [row HC2-3, column LC1-2]
Procedure: as §1

[13] = biological target: T2, H7CR-GFP fusion protein on transfected …; assay: flow cytometry, 5 µg/ml variant on H7CR-GFP transfected CHO cells, anti-hIg PE secondary antibody [row HC2-1, column LC2-1]
Procedure: as §1

[14] = biological target: T2, H7CR-GFP fusion protein on transfected …; assay: flow cytometry, 5 µg/ml variant on H7CR-GFP transfected CHO cells, anti-hIg PE secondary antibody [row HC2-2, column LC2-2]
Procedure: as §1

[15] = biological target: T2, H7CR-GFP fusion protein on transfected …; assay: flow cytometry, 5 µg/ml variant on H7CR-GFP transfected CHO cells, anti-hIg PE secondary antibody [row HC2-1, column LC2-2]
Procedure: as §1

[16] = biological target: T2, H7CR-GFP fusion protein on transfected …; assay: flow cytometry, 5 µg/ml variant on H7CR-GFP transfected CHO cells, anti-hIg PE secondary antibody [row HC2-1, column LC2-3]
Procedure: as §1

[17] = biological target: T2, H7CR-GFP fusion protein on transfected …; assay: flow cytometry, 5 µg/ml variant on H7CR-GFP transfected CHO cells, anti-hIg PE secondary antibody [row HC2-2, column LC2-1]
Procedure: as §1

[18] = biological target: T2, H7CR-GFP fusion protein on transfected …; assay: flow cytometry, 5 µg/ml variant on H7CR-GFP transfected CHO cells, anti-hIg PE secondary antibody [row HC2-2, column LC2-3]
Procedure: as §1

| Binder | binding result [1] | further results |
| --- | --- | --- |
| B1 | binds | binding result [2]: binds |
| B2 | binds | binding result [3]: binds |
| B3 | binds | binding result [4]: binds |
| B4 | binds | binding result [5]: binds |
| B5 | binds | binding result [6]: binds |
| B6 | binds | binding result [7]: binds |
| B7 | binds | binding result [8]: binds |
| B8 | binds | binding result [9]: binds |
| B9 | binds | binding result [10]: binds |
| B10 | binds | binding result [11]: binds |
| B11 | binds | binding result [12]: binds |
| B12 | binds | binding result [13]: binds |
| B13 | binds | binding result [14]: binds |
| B14 | binds | binding result [15]: binds |
| B15 | binds | binding result [16]: binds |
| B16 | binds | binding result [17]: binds |
| B17 | binds | binding result [18]: binds |
